US20250121089A1, “COMPOSITIONS AND METHODS FOR ENHANCING THE EFFECT OF A TROP-2 SPECIFIC THERAPEUTIC” (priority 2023, published 2025)

What was measured:
[1] = system: A549 cells; assay: Apoptosis, annexin V / 7AAD flow cytometry, TTFields with or without Sacituzumab Govitecan; assay type: cell-based, human; details: concomitant with TTFields 1.62 V/cm RMS, 150 kHz, 72 h, FIG. 5
Protocol: Tests were performed on three different cell types: A549, A2780 and 4T1. A549 cells are adenocarcinomec human alveolar basal epithelial cells. A2780 is a human ovarian cancer cell line. 4T1 is a breast cancer cell line derived from the mammary gland tissue of a mouse BALB/c strain. […] NSCLC cells A549 were treated for 72 h with TTFields at an intensity of 1.62 V/cm RMS and a frequency of 150 kHz using the Inovitro system. TTFields were applied to the cells in the absence or presence of the Trop2 inhibitor Sacituzumab Govitecan. Treated cells were double-stained with FITC-conjugated annexin V and 7-aminoactinomycin D (7AAD), and data acquisition was performed using a flow cytometer.

[2] = system: 4T1 cells; assay: as above; assay type: cell-based, mouse; details: concomitant with TTFields 1.62 V/cm RMS, 150 kHz, 72 h, FIG. 11
Protocol: Tests were performed on three different cell types: A549, A2780 and 4T1. A549 cells are adenocarcinomec human alveolar basal epithelial cells. A2780 is a human ovarian cancer cell line. 4T1 is a breast cancer cell line derived from the mammary gland tissue of a mouse BALB/c strain. Lastly, like A549 cells (FIGS. 5) and A2780 cells (FIG. 8), concomitant treatment of TTFields with Sacituzumab Govitecan enhanced the apoptotic effect in 4T1 cells (FIG. 11). Mammary carcinoma cells 4T1 were treated for 72 h with TTFields at an intensity of 1.62 V/cm RMS and a frequency of 150 kHz using the Inovitro system. TTFields were applied to the cells in the absence or presence of the Trop2 inhibitor Sacituzumab Govitecan. Treated cells were double-stained with FITC-conjugated annexin V and 7-aminoactinomycin D (7AAD), and data acquisition was performed using a flow cytometer. AnnexinV−7AAD−, live cells; AnnexinV+7AAD−, cells at early apoptosis; AnnexinV+7AAD+, cells at late apoptosis.

[3] = system: 4T1 cells; assay: Overall effect (cytotoxic x clonogenic effect), TTFields with or without Sacituzumab Govitecan; assay type: cell-based, mouse; details: concomitant with TTFields 1.62 V/cm RMS, 150 kHz, 72 h; re-plated, grown 7-14 days; FIG. 10
Protocol: (§1) Tests were performed on three different cell types: A549, A2780 and 4T1. A549 cells are adenocarcinomec human alveolar basal epithelial cells. A2780 is a human ovarian cancer cell line. 4T1 is a breast cancer cell line derived from the mammary gland tissue of a mouse BALB/c strain.
(§2) Mammary carcinoma cells 4T1 were treated for 72 h with TTFields at an intensity of 1.62 V/cm RMS and a frequency of 150 kHz using the Inovitro system. TTFields were applied to the cells in the absence or presence of the Trop2 inhibitor Sacituzumab Govitecan. Treated cells were harvested, re-plated, and grown for an additional 7-14 days. Colonies were stained (0.5% crystal violet solution), counted, and clonogenic effect was calculated relative to control. Overall effect was calculated by multiplying the cytotoxic and clonogenic effects.

[4] = system: A2780 cells; assay: as above; assay type: cell-based, human; details: concomitant with TTFields 1.62 V/cm RMS, 200 kHz, 72 h; re-plated, grown 7-14 days; FIG. 7
Protocol: as §1
as §2, with “Ovarian” for “Mammary”, “A2780” for “4T1”, “200” for “150”

[5] = system: A549 cells; assay: as above; assay type: cell-based, human; details: concomitant with TTFields 1.62 V/cm RMS, 150 kHz, 72 h; re-plated, grown 7-14 days; FIG. 4
Protocol: as §1
as §2, with “NSCLC” for “Mammary carcinoma”, “A549” for “4T1”

[6] = system: A2780 cells; assay: Apoptosis, annexin V / 7AAD flow cytometry, TTFields with or without Sacituzumab Govitecan; assay type: cell-based, human; details: concomitant with TTFields 1.62 V/cm RMS, 200 kHz, 72 h, FIG. 8
Protocol: Tests were performed on three different cell types: A549, A2780 and 4T1. A549 cells are adenocarcinomec human alveolar basal epithelial cells. A2780 is a human ovarian cancer cell line. 4T1 is a breast cancer cell line derived from the mammary gland tissue of a mouse BALB/c strain. […] Ovarian carcinoma cells A2780 were treated for 72 h with TTFields at an intensity of 1.62 V/cm RMS and a frequency of 200 kHz using the Inovitro system. TTFields were applied to the cells in the absence or presence of the Trop2 inhibitor Sacituzumab Govitecan. Treated cells were double-stained with FITC-conjugated annexin V and 7-aminoactinomycin D (7AAD), and data acquisition was performed using a flow cytometer.

[7] = system: 4T1 cells; assay: Cytotoxic effect (cell count by flow cytometer), TTFields with or without Sacituzumab Govitecan; assay type: cell-based, mouse; details: concomitant with TTFields 1.62 V/cm RMS, 150 kHz, 72 h; FIG. 9
Protocol: as §1
(§3) Mammary carcinoma cells 4T1 were treated for 72 h with TTFields at an intensity of 1.62 V/cm RMS and a frequency of 150 kHz using the Inovitro system. TTFields were applied to the cells in the absence or presence of the Trop2 inhibitor Sacituzumab Govitecan. Treated cells were counted using a flow cytometer, and cytotoxic effect was calculated relative to control cells.

[8] = system: A549 cells; assay: as above; assay type: cell-based, human; details: concomitant with TTFields 1.62 V/cm RMS, 150 kHz, 72 h; FIG. 3
Protocol: as §1
as §3, with “NSCLC” for “Mammary carcinoma”, “A549” for “4T1”

[9] = system: A2780 cells; assay: as above; assay type: cell-based, human; details: concomitant with TTFields 1.62 V/cm RMS, 200 kHz, 72 h; FIG. 6
Protocol: as §1
as §3, with “Ovarian” for “Mammary”, “A2780” for “4T1”, “200” for “150”

Sacituzumab Govitecan
synergistically inhibited: 4T1 cell growth (cytotoxic effect relative to control cells) [7] | A549 cell growth (cytotoxic effect relative to control cells) [8] | A2780 cell growth (cytotoxic effect relative to control cells) [9]
enhanced: apoptotic effect in A549 cells [1] | apoptotic effect in 4T1 cells [2] | apoptotic effect in A2780 cells [6]
synergistically elevated: overall effect in 4T1 cells (cytotoxic x clonogenic effects) [3] | overall effect in A2780 cells (cytotoxic x clonogenic effects) [4] | overall effect in A549 cells (cytotoxic x clonogenic effects) [5]
